{"source": "paper PMC7094243", "binders": {"B1": {"name": "SARS coronavirus non-structural protein 15 (Nsp15), wild-type, His-tagged, P0C6X7 (enzyme)", "chain": "SLENVAYNVVNKGHFDGHAGEAPVSIINNAVYTKVDGIDVEIFENKTTLPVNVAFELWAKRNIKPVPEIKILNNLGVDIAANTVIWDYKREAPAHVSTIGVCTMTDIAKKPTESACSSLTVLFDGRVEGQVDLFRNARNGVLITEGSVKGLTPSKGPAQASVNGVTLIGESVKTQFNYFKKVDGIIQQLPETYFTQSRDLEDFKPRSQMETDFLELAMDEFIQRYKLEGYAFEHIVYGDFSHGQLGGLHLMIGLAKRSQDSPLKLEDFIPMDSTVKNYFITDAQTGSSKCVCSVIDLLLDDFVEIIKSQDLSVISKVVKVTIDYAEISFMLWCKDGHVETFYPKLQ"}}, "key": {"[1]": {"target": "T1, SARS coronavirus non-structural protein 15 (Nsp15), wild-type, His-tagged (SARS coronavirus (SARS-CoV)), P0C6X7", "T1 chain": "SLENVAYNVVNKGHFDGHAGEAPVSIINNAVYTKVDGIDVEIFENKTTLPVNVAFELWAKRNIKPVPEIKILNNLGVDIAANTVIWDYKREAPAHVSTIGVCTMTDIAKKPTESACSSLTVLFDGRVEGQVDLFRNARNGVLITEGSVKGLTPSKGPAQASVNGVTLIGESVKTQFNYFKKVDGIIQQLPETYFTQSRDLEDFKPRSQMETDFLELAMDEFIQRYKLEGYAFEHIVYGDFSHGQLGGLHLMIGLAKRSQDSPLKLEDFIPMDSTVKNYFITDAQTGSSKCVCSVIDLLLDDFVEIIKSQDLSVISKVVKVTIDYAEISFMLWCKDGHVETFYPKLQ", "test": "SEC", "conditions": "remark: other sources report otherwise"}, "[2]": {"target": "T1, SARS coronavirus non-structural protein …", "test": "AUC", "conditions": "remark: other sources report otherwise"}}}
{"binder": "B1", "values": [{"measurement": "percent of total protein hexameric", "setting": "[1]", "result": 90, "unit": "%"}, {"measurement": "stoichiometry N", "setting": "[1]", "result": 6}, {"measurement": "stoichiometry N", "setting": "[2]", "result": 6}]}
